Data: patent US20230340145A1, “Methods of Treating High Risk Multiple Myeloma” (Janssen Biotech, Inc., priority 2017, published 2023)

Legend:
[1] = system: patients with relapsed or refractory multiple myeloma; experiment: POLLUX (NCT02076009) phase 3 trial, safety (adverse events); type: in vivo, human
Description: The purpose of this study was to assess the effects of administration of daratumumab when combined with lenalinomide and dexamethasone compared with lenalinomide and dexamethasone alone, for participants with relapsed or refractory multiple myeloma. The study was a multicenter, randomized open-label active-controlled phase 3 trial. A prespecified interim analysis has been described in Dimopoulos et al., NEJM375: 1319-31, 2016. The clinical trial number for this study is NCT02076009. […] For the DRd, the dose of dexamethasone was split: dexamethasone was administered at a dose of 20 mg before infusion as prophylaxis for infusion-related reactions and 20 mg was administered the next day.

[2] = system: patients with relapsed or refractory multiple myeloma; experiment: CASTOR (NCT02136134) phase 3 trial, safety (adverse events); type: in vivo, human
Description: The purpose of this study is to assess the effects of administration of daratumumab when combined with VELCADE® (bortezomib) and dexamethasone compared with VELCADE® (bortezomib) and dexamethasone alone, for participants with relapsed or refractory multiple myeloma. The study was a multicenter, randomized open-label active-controlled phase 3 trial. A prespecified interim analysis has been described in Palumpo et al., NEJM375:754-66, 2016. The clinical trial number for this study is NCT02136134. Daratumumab was administered as an IV infusion at a dose of 16 mg/kg once per week (days 1, 8, and 15) for cycles 1-3, once every 3 weeks (on Day 1) during cycles 4-8, and once every 4 weeks thereafter. […] Dexamethasone was administered orally at 20 mg on Days 1, 2, 4, 5, 8, 9, 11, and 12, for a total dose of 160 mg per cycle. Safety assessments included the evaluation of adverse events, clinical laboratory testing, vital signs, and electrocardiography. The adverse events were graded according to the National Cancer Institute Common Terminology Criteria for Adverse Events, version 4.03.

For daratumumab, the “Infusion-related reactions occurring during the first infusion” value ([1]; % of the reactions) was 92%, the “Incidence of daratumumab infusion-related reactions of any grade” value ([1]; DRd arm) was 47.7% and the “Infusion-related event of grade 4 or 5” value ([1]; in vivo) was “no patient”. The “Infusion-related reaction: cough” value ([1]; in vivo) was 8.5%, the “Infusion-related reaction: dyspnea” value ([1]; in vivo) was 8.5% and the “Infusion-related reaction: vomiting” value ([1]; in vivo) was 5.7%. The “Patients who discontinued daratumumab because of a grade 3 infusion-related event” value ([1]; in vivo) was “One”, the “Patients with infusion-related reactions whose events occurred during the first infusion” value ([2]; % of patients with infusion-related reactions) was 98.2% and the “Infusion-related reactions of any grade” value ([2]; associated with daratumumab, DVd arm) was 45.3%. The “Grade 4 infusion-related events” value ([2]; in vivo) was “no grade 4 events”, the “Infusion-related reaction: bronchospasm” value ([2]; in vivo) was 9.1% and the “Infusion-related reaction: cough” value ([2]; in vivo) was 7.0%. For the same substance, the “Infusion-related reaction: dyspnea” value ([2]; in vivo) was 10.7% and the “Patients who discontinued treatment because of infusion-related reactions” value ([2]; in vivo) was “Two”.
